{
  "source": "paper PMC9572316",
  "about": "“Ultrathin Covalent Organic Framework Nanosheets/Ti3C2Tx-Based Photoelectrochemical Biosensor for Efficient Detection of Prostate-Specific Antigen”",
  "binders": {"B1": {"name": "PSA aptamer (NH2-C6) (ssDNA)", "DNA": "ATTAAAGCTCGCCATCAAATAGC", "modifications": "5'-NH2-C6"}},
  "molecular_target": "prostate-specific antigen (PSA) (UniProt P07288 25-261)",
  "sequence (P07288 25-261)": "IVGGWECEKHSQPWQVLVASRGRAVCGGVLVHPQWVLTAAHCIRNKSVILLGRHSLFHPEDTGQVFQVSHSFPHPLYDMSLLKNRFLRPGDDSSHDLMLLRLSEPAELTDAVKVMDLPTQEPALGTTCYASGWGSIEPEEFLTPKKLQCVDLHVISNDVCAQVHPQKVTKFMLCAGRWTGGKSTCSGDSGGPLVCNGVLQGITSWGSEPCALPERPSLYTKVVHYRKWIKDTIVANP",
  "experiment": "photoelectrochemical aptasensor (aptamer immobilized on TTPA-CONs/Ti3C2Tx/GCE); 10 ng/mL PSA; photocurrent falls from 3.6 to 1.8 uA after PSA; BSA-blocked electrode; PSA incubated 120 min at 4 °C on BSA-blocked aptamer electrode; photocurrent in 0.1 M phosphate buffer pH 7.4, room temperature, no bias (Section 2.3 states Tris-HCl pH 7.4 as optimum)",
  "conditions": "protein: commercial",
  "data": [
    {"binder": "B1", "values": [
      {"measurement": "binding result", "value": "binds"}
    ]}
  ]
}
